The source of these data is patent US20240384250A1, “FIBROBLAST GROWTH FACTOR 23 MODULATING COMPOUNDS” (THE UAB RESEARCH FOUNDATION, priority 2021, published 2024).

This test has as its target T1, FGF8b binding to FGFR1c (Homo sapiens, UniProt P11362).
T1 construct: a chimeric protein consisting of the FGFR1 ectodomain and the Fc region of a human IgG; purchased R&D Systems 423-F8/CF; 658FR050
T1 sequence (P11362 22-376 limits assumed): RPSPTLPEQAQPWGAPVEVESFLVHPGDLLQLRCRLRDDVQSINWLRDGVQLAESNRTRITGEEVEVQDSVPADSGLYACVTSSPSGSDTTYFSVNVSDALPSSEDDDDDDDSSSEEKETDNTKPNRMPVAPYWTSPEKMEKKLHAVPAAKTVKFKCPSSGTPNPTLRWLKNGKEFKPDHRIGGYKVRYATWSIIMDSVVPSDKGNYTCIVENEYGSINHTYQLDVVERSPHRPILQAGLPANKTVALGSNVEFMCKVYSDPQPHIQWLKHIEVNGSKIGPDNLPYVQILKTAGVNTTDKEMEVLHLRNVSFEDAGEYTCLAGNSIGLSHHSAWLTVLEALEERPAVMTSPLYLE
Nature of the test: Plate-based binding of paracrine FGF to Fc-FGFR1c with heparin and/or sKL. The settings on record: Fc-FGFR1c preincubated with 400 ng FLAG-sKL. The procedure: Proteins were coated on 96-well plates (MaxiSorp; 439454, Thermo Fisher Scientific), and proteins were added to wells in 100 μl of enzyme-linked immunosorbent assay (ELISA) coating buffer (E107, Bethyl Laboratories) with a lid placed overtop and incubated at 4° C. overnight. Plates were washed 5× with 350 μl of assay buffer (50 mM Tris [pH 7.4], 200 mM NaCl, 0.01% Tween 20) on a 50 TS microplate washer (BioTek). Plates were blocked for 1 hour in 200 μl of assay buffer with 0.5% BSA. Plates were washed as before, and proteins were incubated on plates in 100 μl of assay buffer with 0.5% BSA. Proteins or heparin was incubated in orders described in the respective figure legends. Assays using FLAG-tag-based detection were incubated with anti-FLAG coupled to HRP at 1:20,000, and assays using Fc detection were incubated with anti-human Fc coupled to HRP at 1:10,000. Plates were washed as above, and 100 μl of 3,3′,5,5′-tetramethylbenzidine (TMB) substrate (E102, Bethyl Laboratories) was added for 15 to 20 minutes until positive wells developed a dark blue color. Reactions were stopped with ELISA stop solution (E115, Bethyl Laboratories) and analyzed using the Synergy HI plate reader (BioTek) at 450 nm wavelength. […] As a control to remove background absorbance values, wells were coated with an equal amount of BSA to match the amount of protein coated in experimental wells and treated the same as experimental wells. To study the effects of sKL on the binding between paracrine FGFs and FGFRs, plates were run as above except coated with paracrine FGFs. Fc-FGFR1 was preincubated with sKL or vehicle for 60 minutes, and then the combination was added to wells and the assay was run as before.

B1: sKL: recombinant soluble α-klotho ectodomain, mouse aa 35-982 and human aa 34-981, FLAG- or Strep/His-tagged, purified from HEK293 cells (protein)
chain: EPGDGAQTWARFSRPPAPEAAGLFQGTFPDGFLWAVGSAAYQTEGGWQQHGKGASIWDTFTHHPLAPPGDSRNASLPLGAPSPLQPATGDVASDSYNNVFRDTEALRELGVTHYRFSISWARVLPNGSAGVPNREGLRYYRRLLERLRELGVQPVVTLYHWDLPQRLQDAYGGWANRALADHFRDYAELCFRHFGGQVKYWITIDNPYVVAWHGYATGRLAPGIRGSPRLGYLVAHNLLLAHAKVWHLYNTSFRPTQGGQVSIALSSHWINPRRMTDHSIKECQKSLDFVLGWFAKPVFIDGDYPESMKNNLSSILPDFTESEKKFIKGTADFFALCFGPTLSFQLLDPHMKFRQLESPNLRQLLSWIDLEFNHPQIFIVENGWFVSGTTKRDDAKYMYYLKKFIMETLKAIKLDGVDVIGYTAWSLMDGFEWHRGYSIRRGLFYVDFLSQDKMLLPKSSALFYQKLIEKNGFPPLPENQPLEGTFPCDFAWGVVDNYIQVDTTLSQFTDLNVYLWDVHHSKRLIKVDGVVTKKRKSYCVDFAAIQPQIALLQEMHVTHFRFSLDWALILPLGNQSQVNHTILQYYRCMASELVRVNITPVVALWQPMAPNQGLPRLLARQGAWENPYTALAFAEYARLCFQELGHHVKLWITMNEPYTRNMTYSAGHNLLKAHALAWHVYNEKFRHAQNGKISIALQADWIEPACPFSQKDKEVAERVLEFDIGWLAEPIFGSGDYPWVMRDWLNQRNNFLLPYFTEDEKKLIQGTFDFLALSHYTTILVDSEKEDPIKYNDYLEVQEMTDITWLNSPSQVAVVPWGLRKVLNWLKFKYGDLPMYIISNGIDDGLHAEDDQLRVYYMQNYINEALKAHILDGINLCGYFAYSFNDRTAPRFGLYRYAADQFEPKASMKHYRKIIDSNGFPGPETLERFCPEEFTVCTECSFFHTRKS
modifications: left off: small tags and cut ends
notes: recombinant soluble α-klotho ectodomain, mouse aa 35-982 and human aa 34-981, FLAG- or Strep/His-tagged, purified from HEK293 cells
Turning to B1, the “binding of FGFR1c to FGF8b in the presence of sKL” value was “reduced the binding”.
